Target: unmodified NA of A/Vietnam/1203/2004 (VN04, H5N1) (Influenza A virus A/Vietnam/1203/2004 …, UniProt Q6DPL2)
Test: ELISA
Conditions: both partners purified

| Binder | binding result |
| --- | --- |
| NCS.1.1 mAb (IgG) (antibody, V domains shown, copies: 2 + 2) VH: QVQLQESGPRLVKPSETLSLTCSVSGESISSGGYYWTWIRQHPGKGLEWIGNIFDTGSTDYSPSLKTRLTISIDTSKNQFYLRLNSATAADTAVYYCARVGFSLETDRPYYLGLDVWGQGTTVTVSS VL: DIVMTQSPLSLPVTPGEPASISCRSSQSLLHSNGYTYLDWYLQKPGQSPQLLISFTSNRASGVPDRFSGSGSGTYFTLKISRVEAEDVGVYYCMQAVQTPWTFGQGTKVEIK | binds |
| NCS.1.3 mAb (IgG) (antibody, V domains shown, copies: 2 + 2) VH: QVQLQESGPRLVKPSETLSLTCSVSGESISSGGYYWTWIRQHPGKGLEWIGNIFDTGSTDYSPSLKTRLTISIDTSKNQFYLRLTSATAADTAVYYCARVGFSLETDRPYYLGLDVWGQGTTVTVSS VL: DIVMTQSPLTLPVTPGEPASISCRSSQSLLHSNGYTYLDWYLQKPGQSPQLLIYFASNRASGVPDRFSGSGSGTYFTLKISRVEAEDVGVYYCMQAVQSPWTFGQGTKVEIK | binds |

— publication doi:10.1101/2024.11.27.625426 (bioRxiv, 2024)
